Here are results for one substance from paper PMC12147903.

Assay [1] concerns the target E3 ubiquitin ligase zinc RING finger 3 (Znrf3) (mouse (endogenous in MIN6)) (UniProt Q5SSZ7).
Assay [2] concerns the target T1, leucine-rich repeat-containing G-protein coupled receptor 4 (Lgr4) (mouse (endogenous in MIN6)) (UniProt A2ARI4).
T1 sequence: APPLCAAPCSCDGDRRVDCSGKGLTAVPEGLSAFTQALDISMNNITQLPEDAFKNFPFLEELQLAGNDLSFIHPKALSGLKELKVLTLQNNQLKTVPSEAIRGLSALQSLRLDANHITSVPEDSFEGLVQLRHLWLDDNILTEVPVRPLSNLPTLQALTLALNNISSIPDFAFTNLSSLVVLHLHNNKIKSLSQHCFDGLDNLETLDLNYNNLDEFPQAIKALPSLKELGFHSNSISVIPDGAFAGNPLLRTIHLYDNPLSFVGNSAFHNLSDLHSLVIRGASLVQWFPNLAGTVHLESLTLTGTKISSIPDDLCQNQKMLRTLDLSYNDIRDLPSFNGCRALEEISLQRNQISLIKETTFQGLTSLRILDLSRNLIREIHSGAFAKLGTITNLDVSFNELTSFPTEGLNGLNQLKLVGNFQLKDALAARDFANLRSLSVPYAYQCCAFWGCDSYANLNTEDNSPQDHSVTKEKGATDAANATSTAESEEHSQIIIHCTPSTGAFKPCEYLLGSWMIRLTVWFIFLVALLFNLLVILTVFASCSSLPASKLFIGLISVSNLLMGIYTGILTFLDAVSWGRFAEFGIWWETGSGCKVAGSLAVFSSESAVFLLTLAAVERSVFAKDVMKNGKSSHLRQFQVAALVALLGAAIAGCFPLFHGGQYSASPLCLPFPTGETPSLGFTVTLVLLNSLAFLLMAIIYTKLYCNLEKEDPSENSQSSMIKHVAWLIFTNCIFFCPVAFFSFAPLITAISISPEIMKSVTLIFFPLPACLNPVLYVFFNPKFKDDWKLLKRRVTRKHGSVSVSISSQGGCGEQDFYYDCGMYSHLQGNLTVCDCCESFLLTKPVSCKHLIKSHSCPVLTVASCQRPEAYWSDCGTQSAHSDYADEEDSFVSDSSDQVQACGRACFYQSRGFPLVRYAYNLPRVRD

Sequence of human RSPO1 (Q2MKA7 21-263): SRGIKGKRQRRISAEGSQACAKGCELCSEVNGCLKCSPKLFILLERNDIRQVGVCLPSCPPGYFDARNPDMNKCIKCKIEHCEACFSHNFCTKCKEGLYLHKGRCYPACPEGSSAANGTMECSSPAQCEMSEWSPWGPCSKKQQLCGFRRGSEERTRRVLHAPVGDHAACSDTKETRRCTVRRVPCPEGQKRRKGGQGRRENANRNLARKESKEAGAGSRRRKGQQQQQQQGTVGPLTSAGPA
Sequence of UniProt Q5SSZ7 (Q5SSZ7 53-913): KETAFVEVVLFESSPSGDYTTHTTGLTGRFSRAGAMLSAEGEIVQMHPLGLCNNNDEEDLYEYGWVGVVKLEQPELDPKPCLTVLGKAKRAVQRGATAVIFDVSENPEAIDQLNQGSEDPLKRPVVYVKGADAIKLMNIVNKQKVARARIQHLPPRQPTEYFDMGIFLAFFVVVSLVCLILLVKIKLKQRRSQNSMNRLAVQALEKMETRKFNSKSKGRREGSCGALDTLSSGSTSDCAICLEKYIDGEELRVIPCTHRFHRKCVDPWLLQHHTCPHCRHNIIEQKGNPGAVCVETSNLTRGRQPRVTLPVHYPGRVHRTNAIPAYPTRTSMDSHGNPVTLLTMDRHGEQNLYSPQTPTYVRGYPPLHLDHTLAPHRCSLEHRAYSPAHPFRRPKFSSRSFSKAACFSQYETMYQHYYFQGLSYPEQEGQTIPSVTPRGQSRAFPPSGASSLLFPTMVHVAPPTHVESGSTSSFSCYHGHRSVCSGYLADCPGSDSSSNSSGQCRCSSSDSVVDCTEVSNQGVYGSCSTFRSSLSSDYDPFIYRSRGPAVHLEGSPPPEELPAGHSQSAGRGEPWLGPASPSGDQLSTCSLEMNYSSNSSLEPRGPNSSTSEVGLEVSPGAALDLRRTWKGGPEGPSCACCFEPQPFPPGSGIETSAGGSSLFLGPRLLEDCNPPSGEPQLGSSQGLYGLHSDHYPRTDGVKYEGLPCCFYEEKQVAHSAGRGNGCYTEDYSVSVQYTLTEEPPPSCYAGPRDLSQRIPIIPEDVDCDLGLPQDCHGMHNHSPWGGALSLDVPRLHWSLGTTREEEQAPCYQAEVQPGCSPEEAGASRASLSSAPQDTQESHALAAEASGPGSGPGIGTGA

For the substance “human RSPO1 (from UniProt Q2MKA7 21-263) (ligand)”, the MIN6 cell number after 24 h of incubation with increasing doses of human RSPO1, against controls in assay [1] and in assay [2] was 2.08 fold in each case.
